# B1: EncM (as used for size exclusion chromatography) (enzyme, Streptomyces maritimus, UniProt Q9KHK2 1-464, looked up)
# chain: MQFPQLDPATLAAFSAAFRGELIWPSDADYDEARRIWNGTIDRRPALIARCTSTPDVVAAVSFARKSGLLVAVRGGGHSMAGHSVCDGGIVIDLSLMNSIKVSRRLRRARAQGGCLLGAFDTATQAHMLATPAGVVSHTGLGGLVLGGGFGWLSRKYGLSIDNLTSVEIVTADGGVLTASDTENPDLFWAVRGGGGNFGVVTAFEFDLHRVGPVRFASTYYSLDEGPQVIRAWRDHMATAPDELTWALYLRLAPPLPELPADMHGKPVICAMSCWIGDPHEGERQLESILHAGKPHGLTKATLPYRALQAYSFPGAVVPDRIYTKSGYLNELSDEATDTVLEHAADIASPFTQLELLYLGGAVARVPDDATAYPNRQSPFVTNLAAAWMDPTEDARHTAWAREGYRALAGHLSGGYVNFMNPGEADRTREAYGAAKFERLQGVKAKYDPTNLFRLNQNIPPSSP
# modifications: FAD covalently linked to His78 via the C8-methyl of the isoalloxazine ring
# Molecular target: the molecule itself
# Experiment: SEC
protein,measurement,value
B1,stoichiometry N,2
